Data as given in patent US20150267232A1, “IN VIVO AND IN VITRO CARBENE INSERTION AND NITRENE TRANSFER REACTIONS CATALYZED BY HEME ENZYMES” (California Institute of Technology, priority 2012, published 2015).

Assays:
[1] = Intramolecular carbene C—H insertion, substrate 4.1a; type: biochemical
Protocol: (§1) Yield of product 4.22b was established after calibration with phenethyl alcohol as an internal standard. The reaction is not catalyzed by the WT-BM3 heme domain or hemin at 5% catalyst loading.
A representative procedure for P450-catalyzed C—H insertion is as follows: A vial containing WT-AxD (20 μL, 200 μM) was sealed with a teflon cap and the headspace of this vial was purged with argon for 5 min. Concurrently, a solution of sodium dithionite (11 mM in phosphate buffer pH=8) was degassed for a minimum of 5 min and 360 μL of this solution was transferred to the vial containing protein. The gas lines were disconnected from the vials. The substrate 4.1a or 4.1b was then added as a solution (20 μL, 200 mM). Final concentrations of all components were: 10 uM enzyme, 10 mM substrate, and 10 mM dithionite. […]
(§2) The mixture was extracted with 1 mL cyclohexane and analyzed by GC-MS or GC. GC-MS was performed on a Shimadzu TQ8030 GC-MS with ion count detector and J&W HP-5 column (30 m×0.32 mm, 0.25 μm film) using the following method: 90° C. (hold 2 min), 90-190° C. (20° C./min), and 190-230 (40° C./min)

[2] = Intramolecular carbene C—H insertion, substrate 4.1b; type: biochemical; details: 10 mM 4.1b, 10 uM P450, 10 mM Na2S2O4; product 4.2b
Protocol: as §1
A representative procedure for P450-catalyzed C—H insertion is as follows: A vial containing WT-AxD (20 μL, 200 μM) was sealed with a teflon cap and the headspace of this vial was purged with argon for 5 min. Concurrently, a solution of sodium dithionite (11 mM in phosphate buffer pH=8) was degassed for a minimum of 5 min and 360 μL of this solution was transferred to the vial containing protein. The gas lines were disconnected from the vials. The substrate 4.1a or 4.1b was then added as a solution (20 μL, 200 mM). Final concentrations of all components were: 10 uM enzyme, 10 mM substrate, and 10 mM dithionite. The reaction vials were then placed in a tray on a plate shaker and left to shake at 40 rpm for 12 h then 20 μL phenethyl alcohol (20 mM) was added as an internal standard.
as §2

B1: WT-AxD: WT heme domain + C400D (protein)
chain: TIKEMPQPKTFGELKNLPLLNTDKPVQALMKIADELGEIFKFEAPGRVTRYLSSQRLIKEACDESRFDKNLSQALKFVRDFAGDGLFTSWTHEKNWKKAHNILLPSFSQQAMKGYHAMMVDIAVQLVQKWERLNADEHIEVPEDMTRLTLDTIGLCGFNYRFNSFYRDQPHPFITSMVRALDEAMNKLQRANPDDPAYDENKRQFQEDIKVMNDLVDKIIADRKASGEQSDDLLTHMLNGKDPETGEPLDDENIRYQIITFLIAGHETTSGLLSFALYFLVKNPHVLQKAAEEAARVLVDPVPSYKQVKQLKYVGMVLNEALRLWPTAPAFSLYAKEDTVLGGEYPLEKGDELMVLIPQLHRDKTIWGDDVEEFRPERFENPSAIPQHAFKPFGNGQRADIGQQFALHEATLVLGMMLKHFDFEDHTNYELDIKETLSLKPKGFVVKAKSKKIPLGGIPSPST
modifications: synthetic cytochrome P450-BM3 variant WT-AxD (heme)
notes: WT heme domain + C400D
Yield % ([1]; 10 mM 4.1a, 10 uM P450, 10 mM Na2S2O4, product 4.2a): 14% | lactone formation via C—H bond insertion ([1]; substrates 4.1a and 4.1b, 10 μM variant or hemin at 5% catalyst loading, 16 h): lactone formation | Yield % [2]: 4%
